Sequences and labels used below:
B1: MinE07UA-Biotin (structured_RNA)
RNA: CGGAUUUAAUCGCCGUAGAAAAGCAUGUCAAAGCCGGAACCGUCC
modifications: 2'-F on all C and U; 5-phenyl-U at 6,7,43 (U2,U3,U8); 5-iodo-U at 16 (U5); lacks 5' GGA
B2: MinE07UC-Biotin (structured_RNA)
RNA: GGAUUUAAUCGCCGUAGAAAAGCAUGUCAAAGCCGGAACCGUCC
modifications: 2'-F on all C and U; 5-vinyl-U at 4,27 (U1,U7); 5-phenyl-U at 25 (U6); lacks 5' GGAC

Data on nine molecules can be found in publication PMC10498682, “Selection of optimised ligands by fluorescence-activated bead sorting†”.

The Kd is the equilibrium constant for the complex coming apart.

In one data set the target is EGFR extracellular domain, Fc fusion (EGFR-Fc) (UniProt P00533 25-644). The data set can be described thus: ELISA-type plate assay; EGFR-Fc on protein A 96-well plates, biotinylated aptamer, streptavidin-AP chemiluminescence, n = 3; buffer, salt, pH and temperature not in the material. As to conditions: protein: recombinant; tags: Fc; chain copies: 2; label: 5'-biotin; single strand. (An ELISA detects its analyte on a solid surface through an enzyme-linked reagent.)
Take B1: the Kd came out at 1.53 ± 0.13 nM.
The same measure, in the same setting: for GGACGGAUUUAAUCGCCGUAGAAAAGCAUGUCAAAGCCGGAACCGUCC (structured_RNA, 2'-F on all C and U; 5-iodo on all 8 U (8,9,10,13,19,29,31,46)) [MinE07-U-I-Biotin] the value was 2.05 ± 0.26 nM; for GGACGGAUUUAAUCGCCGUAGAAAAGCAUGUCAAAGCCGGAACCGUCC (structured_RNA, 2'-F on all C and U; 5-phenyl-U at 9,10,19 (U2,U3,U5); 5-iodo-U at 13 (U4)) [MinE07UB-Biotin], 1.47 ± 0.54 nM.
As to GGACGGAUUUAAUCGCCGUAGAAAAGCAUGUCAAAGCCGGAACCGUCC (structured_RNA, 2'-F on all C and U; 5-phenyl-U at 9,10,46 (U2,U3,U8); 5-iodo-U at 19 (U5)) [MinE07UA'-Biotin], the Kd turned out to be 3.39 ± 0.71 nM.
In the case of GGACGGAUUUAAUCGCCGUAGAAAAGCAUGUCAAAGCCGGAACCGUCC (structured_RNA, 2'-F on all C and U; 5-vinyl on all 8 U (8,9,10,13,19,29,31,46)) [MinE07-U-Vi-Biotin], the Kd was found to be 4.62 ± 0.48 nM.
With GGACGGAUUUAAUCGCCGUAGAAAAGCAUGUCAAAGCCGGAACCGUCC (structured_RNA, 2'-F on all C and U; 5-phenyl on all 8 U (8,9,10,13,19,29,31,46)) [MinE07-U-Ph-Biotin], the Kd was found to be 3.59 ± 0.82 nM.
GGACGGAUUUAAUCGCCGUAGAAAAGCAUGUCAAAGCCGGAACCGUCC (structured_RNA, 2'-F on all C and U; 5-vinyl-U at 8,31 (U1,U7); 5-phenyl-U at 29 (U6)) [MinE07UC'-Biotin]: the dissociation constant (Kd) turned out to be 1.11 ± 0.45 nM.
The same measure, in the same setting: the value for B2 was 1.23 ± 0.1 nM.

The data set is the same for the next values; noted with them: protein: recombinant; tags: Fc; chain copies: 2; label: 5'-biotin; single strand; 5' and 3' ends base pair, three loops (predicted).
Regarding GGACGGAUUUAAUCGCCGUAGAAAAGCAUGUCAAAGCCGGAACCGUCC (structured_RNA, 2'-F on all C and U; A and G ribo) [MinE07-Biotin], the Kd was 3.7 ± 0.38 nM.
